Test [1] deals with DR4G99: Human HLA-DRA1*01:02/DRB1*01:01 ECD with collagen peptide CII_1236-1249 (human). In words: MSD ECL; antigen coated; mAb 0.2 µg/ml.
The target is the same in test [2]. Kind of test: MSD ECL; antigen coated; protocol of Example 3.

B1: DR4B4 (antibody, V domains shown)
VH: QVQLKESGPGLVAPSQSLSITCTISGFSLTSYGVHWVRQPPGKGLEWLVVIWSDGSTTYNSALKSRLSISKDNSKSQVFLKMNSLQTDDTAIYYCASHYGSTLAFASWGHGTLVTVSA
VL: DIQMTQSPASLSASVGETVTIICRASVNIYSYLAWYQQKQGKSPQLLVYNAKILAEGVPSRFSGSGSGTQFSLKINSLQPEDFGSYYCQHHYGPFTFGSGTKLEIK
For the molecule B1, the ECL signal was found to be 15500 ECL in test [1] and 697 ECL in test [2].

Source of the values: patent US20180355043A1.
